According to publication PMC9931023 (Journal of Food and Drug Analysis, 2021):

Biological target: p27 (Kip1), endogenous in breast tissue (human (endogenous in breast tissue …, UniProt P46527 1-198))
Assay: FRET or BRET

Sequence of p27 (Kip1), endogenous in breast tissue (human (P46527 whole entry): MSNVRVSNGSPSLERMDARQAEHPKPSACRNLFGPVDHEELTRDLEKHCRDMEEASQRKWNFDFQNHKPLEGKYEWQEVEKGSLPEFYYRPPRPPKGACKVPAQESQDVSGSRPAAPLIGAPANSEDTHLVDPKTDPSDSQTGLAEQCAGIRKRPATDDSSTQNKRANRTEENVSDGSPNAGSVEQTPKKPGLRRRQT

FRET activity (fold): 25.2 fold
B1: salt-induced kinase-3 (SIK3), endogenous in breast tissue (enzyme, UniProt Q9Y2K2-5 1-1321, looked up)
chain: MAAAAASGAGGAAGAGTGGAGPAGRLLPPPAPGSPAAPAAVSPAAGQPRPPAPASRGPMPARIGYYEIDRTIGKGNFAVVKRATHLVTKAKVAIKIIDKTQLDEENLKKIFREVQIMKMLCHPHIIRLYQVMETERMIYLVTEYASGGEIFDHLVAHGRMAEKEARRKFKQIVTAVYFCHCRNIVHRDLKAENLLLDANLNIKIADFGFSNLFTPGQLLKTWCGSPPYAAPELFEGKEYDGPKVDIWSLGVVLYVLVCGALPFDGSTLQNLRARVLSGKFRIPFFMSTECEHLIRHMLVLDPNKRLSMEQICKHKWMKLGDADPNFDRLIAECQQLKEERQVDPLNEDVLLAMEDMGLDKEQTLQSLRSDAYDHYSAIYSLLCDRHKRHKTLRLGALPSMPRALAFQAPVNIQAEQAGTAMNISVPQVQLINPENQIVEPDGTLNLDSDEGEEPSPEALVRYLSMRRHTVGVADPRTEVMEDLQKLLPGFPGVNPQAPFLQVAPNVNFMHNLLPMQNLQPTGQLEYKEQSLLQPPTLQLLNGMGPLGRRASDGGANIQLHAQQLLKRPRGPSPLVTMTPAVPAVTPVDEESSDGEPDQEAVQSSTYKDSNTLHLPTERFSPVRRFSDGAASIQAFKAHLEKMGNNSSIKQLQQECEQLQKMYGGQIDERTLEKTQQQHMLYQQEQHHQILQQQIQDSICPPQPSPPLQAACENQPALLTHQLQRLRIQPSSPPPNHPNNHLFRQPSNSPPPMSSAMIQPHGAASSSQFQGLPSRSAIFQQQPENCSSPPNVALTCLGMQQPAQSQQVTIQVQEPVDMLSNMPGTAAGSSGRGISISPSAGQMQMQHRTNLMATLSYGHRPLSKQLSADSAEAHSLNVNRFSPANYDQAHLHPHLFSDQSRGSPSSYSPSTGVGFSPTQALKVPPLDQFPTFPPSAHQQPPHYTTSALQQALLSPTPPDYTRHQQVPHILQGLLSPRHSLTGHSDIRLPPTEFAQLIKRQQQQRQQQQQQQQQQEYQELFRHMNQGDAGSLAPSLGGQSMTERQALSYQNADSYHHHTSPQHLLQIRAQECVSQASSPTPPHGYAHQPALMHSESMEEDCSCEGAKDGFQDSKSSSTLTKGCHDSPLLLSTGGPGDPESLLGTVSHAQELGIHPYGHQPTAAFSKNKVPSREPVIGNCMDRSSPGQAVELPDHNGLGYPARPSVHEHHRPRALQRHHTIQNSDDAYVQLDNLPGMSLVAGKALSSARMSDAVLSQSSLMGSQQFQDGENEECGASLGGHEHPDLSDGSQHLNSSCYPSTCITDILLSYKHPEVSFSMEQAGV
